Results from US20190309300A1 (TECHNION RESEARCH AND DEVELOPMENT FOUNDATION, published 2019).

Target: T1, flag tagged full length HDAC4 (human, UniProt P56524 1-1084)
T1 construct: Full length, expressed in transfected cells and immunoprecipitated from lysate; also called Flag-HDAC4; pcDNA HDAC4-flag; not shown: Flag tag
Assay: co-immunoprecipitation, IP anti-Flag, blot anti-HA (FIG. 7B)
Experimental: Cultured cells were washed with ice-cold phosphate-buffered saline (PBS) buffer and lysed in buffer containing 50 mM Tris, pH 7.5, 150 mM NaCl, 1 mM EDTA, and 1% NP-40. 400 μg of protein was immunoprecipitated with anti-Flag (Sigma-Aldrich), or IgG antibodies (negative control) and protein A/G agarose beads (Santa Cruz Biotechnology, Inc.) as described previously [Kehat I, et al., Modulation of chromatin position and gene expression by HDAC4 interaction with nucleoporins. J Cell Biol 2011, 193, 21-29]. Beads were washed three times with buffer and suspended in 30 μl of Laemmli buffer. Proteins were separated on an SDS gel, blotted, and detected with primary antibody recognizing HA (Santa Cruz Biotechnology, Inc. sc-805) or flag (Sigma-Aldrich).

T1 sequence (P56524 whole entry): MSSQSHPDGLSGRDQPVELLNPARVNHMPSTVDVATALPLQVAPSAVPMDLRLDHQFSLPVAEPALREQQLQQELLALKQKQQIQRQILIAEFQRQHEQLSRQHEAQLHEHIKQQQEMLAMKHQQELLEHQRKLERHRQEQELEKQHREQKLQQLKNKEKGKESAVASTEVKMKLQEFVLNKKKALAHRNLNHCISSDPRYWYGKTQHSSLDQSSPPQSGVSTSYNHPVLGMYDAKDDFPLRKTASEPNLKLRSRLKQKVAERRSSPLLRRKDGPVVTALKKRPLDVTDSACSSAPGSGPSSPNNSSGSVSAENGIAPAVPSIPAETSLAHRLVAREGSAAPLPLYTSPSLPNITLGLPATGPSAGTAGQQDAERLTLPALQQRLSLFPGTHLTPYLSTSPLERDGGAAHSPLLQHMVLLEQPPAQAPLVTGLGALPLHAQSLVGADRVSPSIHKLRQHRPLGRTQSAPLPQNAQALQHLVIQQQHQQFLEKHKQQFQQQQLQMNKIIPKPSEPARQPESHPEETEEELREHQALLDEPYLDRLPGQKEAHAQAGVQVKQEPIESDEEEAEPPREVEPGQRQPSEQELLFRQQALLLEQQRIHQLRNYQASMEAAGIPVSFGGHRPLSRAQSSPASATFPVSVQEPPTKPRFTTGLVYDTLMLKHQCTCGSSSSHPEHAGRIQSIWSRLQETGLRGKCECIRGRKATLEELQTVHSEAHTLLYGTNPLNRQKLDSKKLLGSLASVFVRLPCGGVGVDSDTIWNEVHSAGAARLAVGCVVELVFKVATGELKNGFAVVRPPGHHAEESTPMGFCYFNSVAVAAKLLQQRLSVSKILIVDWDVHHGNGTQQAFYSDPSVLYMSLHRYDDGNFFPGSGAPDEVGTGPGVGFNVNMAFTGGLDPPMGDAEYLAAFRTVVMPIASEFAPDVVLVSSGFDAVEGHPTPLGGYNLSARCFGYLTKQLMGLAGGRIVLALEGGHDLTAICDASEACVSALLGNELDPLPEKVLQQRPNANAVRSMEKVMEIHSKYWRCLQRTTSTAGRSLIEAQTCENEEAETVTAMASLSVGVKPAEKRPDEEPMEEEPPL

B1: 3HA tagged ENIGMA fragment containing the linker and first LIM domain (other, mouse, UniProt Q3TJD7 86-338, looked up)
chain: PVQSKPQKALTPPADPPRYTFAPSASLNKTARPFGAPPPTDSTLRQNGQLLRQPVPDASKQRLMEDTEDWRPRPGTGQSRSFRILAHLTGTEFMQDPDEEFMKKSSQVPRTEAPAPASTIPQESWPGPTTPSPTSRPPWAVDPAFAERYAPDKTSTVLTRHSQPATPTPLQNRTSIVQAAAGGGTGGGSNNGKTPVCHQCHKIIRGRYLVALGHAYHPEEFVCSQCGKVLEEGGFFEEKGAIFCPSCYDVRYA
notes: domain: linker and first LIM domain; not shown: 3HA tag
binding result: no binding

B2: 3HA tagged ENIGMA fragment containing the PDZ domain and linker (other, mouse, UniProt Q3TJD7 1-279, looked up)
chain: MDSFKVVLEGPAPWGFRLQGGKDFNVPLSISRLTPGGKAAQAGVAVGDWVLNIDGENAGSLTHIEAQNKIRACGERLSLGLSRAQPVQSKPQKALTPPADPPRYTFAPSASLNKTARPFGAPPPTDSTLRQNGQLLRQPVPDASKQRLMEDTEDWRPRPGTGQSRSFRILAHLTGTEFMQDPDEEFMKKSSQVPRTEAPAPASTIPQESWPGPTTPSPTSRPPWAVDPAFAERYAPDKTSTVLTRHSQPATPTPLQNRTSIVQAAAGGGTGGGSNNGKT
notes: domain: PDZ domain and linker; not shown: 3HA tag
binding result: no binding
